In patent US20090317364A1, “NOVEL COMPOSITIONS FOR PREVENTION AND TREATMENT OF MASTITIS AND METRITIS” (priority 2006, published 2009):

Experiments:
[1] = tested on: Staphylococcus. aureus; assay: Lab trials 2a (in vitro) for synergy, components added in wells for diffusion; format: cell-based
Description: a) Lab trials 2a (in vitro) for synergy.

[2] = tested on: Staphylococcus. aureus; assay: Lab trials 2b (in vitro) for synergy, components added on top of the culture; format: cell-based
Description: b) Lab trials 2b (in vitro) for synergy.

B1: Serratiopeptidase (protein, UniProt P07268 17-487, looked up)
Serralysin: AATTGYDAVDDLLHYHERGNGIQINGKDSFSNEQAGLFITRENQTWNGYKVFGQPVKLTFSFPDYKFSSTNVAGDTGLSKFSAEQQQQAKLSLQSWADVANITFTEVAAGQKANITFGNYSQDRPGHYDYGTQAYAFLPNTIWQGQDLGGQTWYNVNQSNVKHPATEDYGRQTFTHEIGHALGLSHPGDYNAGEGNPTYRDVTYAEDTRQFSLMSYWSETNTGGDNGGHYAAAPLLDDIAAIQHLYGANLSTRTGDTVYGFNSNTGRDFLSTTSNSQKVIFAAWDAGGNDTFDFSGYTANQRINLNEKSFSDVGGLKGNVSIAAGVTIENAIGGSGNDVIVGNAANNVLKGGAGNDVLFGGGGADELWGGAGKDIFVFSAASDSAPGASDWIRDFQKGIDKIDLSFFNKEAQSSDFIHFVDHFSGAAGEALLSYNASNNVTDLSVNIGGHQAPDFLVKIVGQVDVATDFIV
notes: proteolytic enzyme isolated from the non-pathogenic Enterobacteria Serratia E15, CAS 37312-62-2
Inhibition zone diameter In cm for Staphylococcus. aureus [1]: 0.5 cm | Inhibition zone In diameter cm for Staphylococcus. aureus [2]: 0.61 cm
